Measured values as given in publication PMC6092189 (Nature structural & molecular biology, 2018).
Positions count from the first letter of the chain named. In names and notes the source's numbering stands.

B1: recombinant human β-cardiac myosin subfragment-1 (short S1, sS1, MYH7 residues 1-808) with C-termina (complex)
chain 1: MGDSEMAVFGAAAPYLRKSEKERLEAQTRPFDLKKDVFVPDDKQEFVKAKIVSREGGKVTAETEYGKTVTVKEDQVMQQNPPKFDKIEDMAMLTFLHEPAVLYNLKDRYGSWMIYTYSGLFCVTVNPYKWLPVYTPEVVAAYRGKKRSEAPPHIFSISDNAYQYMLTDRENQSILITGESGAGKTVNTKRVIQYFAVIAAIGDRSKKDQSPGKGTLEDQIIQANPALEAFGNAKTVRNDNSSRFGKFIRIHFGATGKLASADIETYLLEKSRVIFQLKAERDYHIFYQILSNKKPELLDMLLITNNPYDYAFISQGETTVASIDDAEELMATDNAFDVLGFTSEEKNSMYKLTGAIMHFGNMKFKLKQREEQAEPDGTEEADKSAYLMGLNSADLLKGLCHPRVKVGNEYVTKGQNVQQVIYATGALAKAVYERMFNWMVTRINATLETKQPRQYFIGVLDIAGFEIFDFNSFEQLCINFTNEKLQQFFNHHMFVLEQEEYKKEGIEWTFIDFGMDLQACIDLIEKPMGIMSILEEECMFPKATDMTFKAKLFDNHLGKSANFQKPRNIKGKPEAHFSLIHYAGIVDYNIIGWLQKNKDPLNETVVGLYQKSSLKLLSTLFANYAGADAPIEKGKGKAKKGSSFQTVSALHRENLNKLMTNLRSTHPHFVRCIIPNETKSPGVMDNPLVMHQLRCNGVLEGIRICRKGFPNRILYGDFRQRYRILNPAAIPEGQFIDSRKGAEKLLSSLDIDHNQYKFGHTKVFFKAGLLGLLEEMRDERLSRIITRIQAQSRGVLARMEYKKLLERR
chain 2: not shown
B2: human β-cardiac myosin sS1-eGFP (MYH7 1-808) A223T with essential light chain (complex)
chain 1: B1 chain 1 with A223T
chain 2: not shown
B3: human β-cardiac myosin sS1-eGFP (MYH7 1-808) D239N with essential light chain (complex)
chain 1: B1 chain 1 with D239N
chain 2: not shown
B4: human β-cardiac myosin sS1-eGFP (MYH7 1-808) H251N with essential light chain (complex)
chain 1: B1 chain 1 with H251N
chain 2: not shown
B5: human β-cardiac myosin sS1-eGFP (MYH7 1-808) S532P with essential light chain (complex)
chain 1: B1 chain 1 with S532P
chain 2: not shown
B6: human β-cardiac myosin sS1-eGFP (MYH7 1-808) R237W with essential light chain (complex)
chain 1: B1 chain 1 with R237W
chain 2: not shown

biological target: TMR-phalloidin-labelled biotinylated actin filaments (UniProt P68135 1-377, biotin (~1 biotin per monomer)); test: optical trap, harmonic force spectroscopy

In order of rising “k0, detachment rate from actin at zero load” value:
1. B5  80 s⁻¹
2. B1  102 s⁻¹
3. B2  104 s⁻¹
4. B3  140 s⁻¹
5. B4  152 s⁻¹
6. B6  155 s⁻¹
